Assay results as given in paper PMC3985463.

Target: His6-UP1 C43S/C175S (hnRNP A1 UP1 domain; ITC) (Homo sapiens, UniProt P09651 1-196, C43S;C175S)
Test: ITC

Sequence of His6-UP1 C43S/C175S (hnRNP A1 UP1 domain; ITC) (P09651 1-196 C43S/C175S): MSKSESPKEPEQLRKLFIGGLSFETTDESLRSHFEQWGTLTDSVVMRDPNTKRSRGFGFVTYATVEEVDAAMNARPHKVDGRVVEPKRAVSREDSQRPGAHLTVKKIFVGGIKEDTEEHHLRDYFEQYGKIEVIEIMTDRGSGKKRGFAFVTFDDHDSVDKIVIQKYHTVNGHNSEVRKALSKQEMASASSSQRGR

GAUUAG (ssRNA) [ESS3b loop]
Kd: 4.17 ± 0.421 µM
